How the values were obtained:
CNBP (ZNF9) [1] = target: T1, CNBP (ZNF9) (Homo sapiens, UniProt P62633 1-177); assay: EMSA; folded in 200 mM Li+; 100 mM LiCl in binding; slightly higher affinity than in K+; EMSA: 20 mM HEPES pH 8.0, 10 mM MgCl2, 1 mM EDTA, 0.5 ug/uL heparin, 1 mM DTT, 1 ug/uL BSA, 10% glycerol, 100 mM KCl or LiCl, 0.75 uM RNA, 30 min 37 C; CD: 10 mM Tris-HCl pH 7.5 + 100/200 mM KCl, protein incubation 30 min 37 C, spectra at 20 C; conditions: protein: recombinant; tags: tag-free (expressed from pET-32a-TEV-CNBP, tag removed); intramolecular G4 (two-quartet)
CNBP (ZNF9) [2] = target: T1, CNBP (ZNF9); assay: EMSA; folded in 200 mM Li+ or K+; EMSA: 20 mM HEPES pH 8.0, 10 mM MgCl2, 1 mM EDTA, 0.5 ug/uL heparin, 1 mM DTT, 1 ug/uL BSA, 10% glycerol, 100 mM KCl or LiCl, 0.75 uM RNA, 30 min 37 C; CD: 10 mM Tris-HCl pH 7.5 + 100/200 mM KCl, protein incubation 30 min 37 C, spectra at 20 C; conditions: protein: recombinant; tags: tag-free (expressed from pET-32a-TEV-CNBP, tag removed); no G4 formed; predicted 4-bp stem-loop
CNBP (ZNF9) [3] = target: T1, CNBP (ZNF9); assay: EMSA; folded in 100 mM Li+; 100 mM LiCl in binding; slightly higher affinity than in K+; EMSA: 20 mM HEPES pH 8.0, 10 mM MgCl2, 1 mM EDTA, 0.5 ug/uL heparin, 1 mM DTT, 1 ug/uL BSA, 10% glycerol, 100 mM KCl or LiCl, 0.75 uM RNA, 30 min 37 C; CD: 10 mM Tris-HCl pH 7.5 + 100/200 mM KCl, protein incubation 30 min 37 C, spectra at 20 C; conditions: protein: recombinant; tags: tag-free (expressed from pET-32a-TEV-CNBP, tag removed); intramolecular G4; minor self-assembled multimer band in Li+
CNBP (ZNF9) [4] = target: T1, CNBP (ZNF9); assay: CD (G4 unfolding); 100 mM K+ folding; 8 uM, 1:1; EMSA: 20 mM HEPES pH 8.0, 10 mM MgCl2, 1 mM EDTA, 0.5 ug/uL heparin, 1 mM DTT, 1 ug/uL BSA, 10% glycerol, 100 mM KCl or LiCl, 0.75 uM RNA, 30 min 37 C; CD: 10 mM Tris-HCl pH 7.5 + 100/200 mM KCl, protein incubation 30 min 37 C, spectra at 20 C; conditions: protein: recombinant; tags: tag-free (expressed from pET-32a-TEV-CNBP, tag removed); intramolecular G4
CNBP (ZNF9) [5] = target: T1, CNBP (ZNF9); assay: CD (G4 unfolding); 200 mM K+ folding; 8 uM, 1:1; EMSA: 20 mM HEPES pH 8.0, 10 mM MgCl2, 1 mM EDTA, 0.5 ug/uL heparin, 1 mM DTT, 1 ug/uL BSA, 10% glycerol, 100 mM KCl or LiCl, 0.75 uM RNA, 30 min 37 C; CD: 10 mM Tris-HCl pH 7.5 + 100/200 mM KCl, protein incubation 30 min 37 C, spectra at 20 C; conditions: protein: recombinant; tags: tag-free (expressed from pET-32a-TEV-CNBP, tag removed); intramolecular G4

T1 sequence (P62633 whole entry): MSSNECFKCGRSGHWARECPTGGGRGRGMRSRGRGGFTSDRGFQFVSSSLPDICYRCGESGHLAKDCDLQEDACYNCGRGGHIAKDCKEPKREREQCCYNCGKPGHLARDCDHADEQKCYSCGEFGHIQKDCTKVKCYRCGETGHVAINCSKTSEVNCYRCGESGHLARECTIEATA

Binder: GGUAAUAAAGGAGCUGGUGG (structured_RNA) [+644]
- binding result (CNBP (ZNF9) [1]): binds

Binder: GGCUGGCAAUGGCGG (structured_RNA) [+28,903]
- binding result (CNBP (ZNF9) [2]): no binding

Binder: GGAGGAGGUGUUGCAGGA (structured_RNA) [+3467]
- binding result (CNBP (ZNF9) [3]): binds

Binder: GGAUAUGGUUGGUUUGG (structured_RNA) [-23,877]
- binding result (CNBP (ZNF9) [4]): binds

Binder: GGAUCUGGGUAAGGAAGG (structured_RNA) [-13,963]
- binding result (CNBP (ZNF9) [5]): binds

Source: PMC7961906, “CNBP Binds and Unfolds In Vitro G-Quadruplexes Formed in the SARS-CoV-2 Positive and Negative Genome Strands”
